# Positions count from the first letter of the chain named. Where no end group is shown, it is not given here.
# T1: β-catenin (human, UniProt P35222 2-781)
# T1 sequence (looked up): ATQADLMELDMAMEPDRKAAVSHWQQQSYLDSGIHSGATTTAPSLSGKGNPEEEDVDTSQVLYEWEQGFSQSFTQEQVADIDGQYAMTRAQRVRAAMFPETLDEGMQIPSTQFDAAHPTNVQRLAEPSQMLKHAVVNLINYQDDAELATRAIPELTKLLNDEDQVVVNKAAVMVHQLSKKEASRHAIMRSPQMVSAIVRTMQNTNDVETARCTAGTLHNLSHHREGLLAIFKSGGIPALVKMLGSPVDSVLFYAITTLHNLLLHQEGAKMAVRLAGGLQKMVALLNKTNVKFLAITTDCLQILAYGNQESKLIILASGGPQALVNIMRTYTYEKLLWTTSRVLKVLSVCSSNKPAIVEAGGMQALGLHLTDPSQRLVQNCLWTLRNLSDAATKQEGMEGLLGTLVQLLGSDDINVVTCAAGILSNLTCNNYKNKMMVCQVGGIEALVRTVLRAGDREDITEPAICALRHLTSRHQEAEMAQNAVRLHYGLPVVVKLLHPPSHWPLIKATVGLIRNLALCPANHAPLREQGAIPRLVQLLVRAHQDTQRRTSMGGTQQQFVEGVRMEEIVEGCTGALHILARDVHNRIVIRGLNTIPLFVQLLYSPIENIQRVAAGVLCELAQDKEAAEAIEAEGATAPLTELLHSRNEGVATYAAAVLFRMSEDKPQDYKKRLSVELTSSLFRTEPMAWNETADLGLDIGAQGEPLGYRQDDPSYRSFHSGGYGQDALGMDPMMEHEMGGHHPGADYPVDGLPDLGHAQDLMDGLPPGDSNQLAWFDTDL
# T2: γ-catenin (plakoglobin) (human, UniProt P14923 1-745)
# T2 sequence (looked up): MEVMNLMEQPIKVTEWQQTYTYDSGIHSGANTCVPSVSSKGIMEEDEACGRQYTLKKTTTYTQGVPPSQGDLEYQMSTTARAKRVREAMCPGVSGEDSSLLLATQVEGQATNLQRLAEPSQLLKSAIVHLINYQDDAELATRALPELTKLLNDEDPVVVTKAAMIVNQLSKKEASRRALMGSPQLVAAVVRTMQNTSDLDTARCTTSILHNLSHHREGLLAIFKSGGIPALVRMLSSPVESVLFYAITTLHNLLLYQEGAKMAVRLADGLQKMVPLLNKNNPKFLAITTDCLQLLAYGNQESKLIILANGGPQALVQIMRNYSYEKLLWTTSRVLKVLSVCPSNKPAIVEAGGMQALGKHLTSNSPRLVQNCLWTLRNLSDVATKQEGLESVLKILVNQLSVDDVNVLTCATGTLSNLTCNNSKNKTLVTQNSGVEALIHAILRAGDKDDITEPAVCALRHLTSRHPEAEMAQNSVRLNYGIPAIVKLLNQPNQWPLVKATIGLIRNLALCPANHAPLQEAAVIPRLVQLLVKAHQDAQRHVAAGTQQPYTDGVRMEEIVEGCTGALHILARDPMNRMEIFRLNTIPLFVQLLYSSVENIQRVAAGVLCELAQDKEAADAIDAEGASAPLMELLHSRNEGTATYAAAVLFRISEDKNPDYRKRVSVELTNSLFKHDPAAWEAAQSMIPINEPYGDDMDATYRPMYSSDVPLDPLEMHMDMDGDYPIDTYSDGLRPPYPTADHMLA
# T3: VE-cadherin (human, UniProt P33151 48-784)
# T3 sequence (looked up): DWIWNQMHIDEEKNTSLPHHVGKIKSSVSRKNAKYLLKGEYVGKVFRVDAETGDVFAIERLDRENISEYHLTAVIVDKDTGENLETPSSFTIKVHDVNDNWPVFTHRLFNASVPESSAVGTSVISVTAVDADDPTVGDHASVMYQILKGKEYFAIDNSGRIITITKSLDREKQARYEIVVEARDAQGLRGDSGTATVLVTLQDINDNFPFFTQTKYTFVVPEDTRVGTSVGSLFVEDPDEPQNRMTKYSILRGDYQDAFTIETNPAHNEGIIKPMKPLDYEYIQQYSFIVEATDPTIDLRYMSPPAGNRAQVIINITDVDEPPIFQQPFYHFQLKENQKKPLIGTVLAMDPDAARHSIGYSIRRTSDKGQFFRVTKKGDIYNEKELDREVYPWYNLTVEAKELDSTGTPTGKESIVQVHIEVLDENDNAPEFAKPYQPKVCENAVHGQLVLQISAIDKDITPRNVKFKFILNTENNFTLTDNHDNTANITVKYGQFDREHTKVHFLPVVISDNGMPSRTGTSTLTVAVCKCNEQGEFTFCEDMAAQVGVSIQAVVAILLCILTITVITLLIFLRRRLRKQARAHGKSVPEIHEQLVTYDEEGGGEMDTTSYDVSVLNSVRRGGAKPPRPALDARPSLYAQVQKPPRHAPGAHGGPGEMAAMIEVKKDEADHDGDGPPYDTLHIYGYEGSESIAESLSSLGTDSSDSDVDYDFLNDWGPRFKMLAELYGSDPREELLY
# T4: p120catenin (human, UniProt O60716 1-968, limits assumed)
# T4 sequence (looked up): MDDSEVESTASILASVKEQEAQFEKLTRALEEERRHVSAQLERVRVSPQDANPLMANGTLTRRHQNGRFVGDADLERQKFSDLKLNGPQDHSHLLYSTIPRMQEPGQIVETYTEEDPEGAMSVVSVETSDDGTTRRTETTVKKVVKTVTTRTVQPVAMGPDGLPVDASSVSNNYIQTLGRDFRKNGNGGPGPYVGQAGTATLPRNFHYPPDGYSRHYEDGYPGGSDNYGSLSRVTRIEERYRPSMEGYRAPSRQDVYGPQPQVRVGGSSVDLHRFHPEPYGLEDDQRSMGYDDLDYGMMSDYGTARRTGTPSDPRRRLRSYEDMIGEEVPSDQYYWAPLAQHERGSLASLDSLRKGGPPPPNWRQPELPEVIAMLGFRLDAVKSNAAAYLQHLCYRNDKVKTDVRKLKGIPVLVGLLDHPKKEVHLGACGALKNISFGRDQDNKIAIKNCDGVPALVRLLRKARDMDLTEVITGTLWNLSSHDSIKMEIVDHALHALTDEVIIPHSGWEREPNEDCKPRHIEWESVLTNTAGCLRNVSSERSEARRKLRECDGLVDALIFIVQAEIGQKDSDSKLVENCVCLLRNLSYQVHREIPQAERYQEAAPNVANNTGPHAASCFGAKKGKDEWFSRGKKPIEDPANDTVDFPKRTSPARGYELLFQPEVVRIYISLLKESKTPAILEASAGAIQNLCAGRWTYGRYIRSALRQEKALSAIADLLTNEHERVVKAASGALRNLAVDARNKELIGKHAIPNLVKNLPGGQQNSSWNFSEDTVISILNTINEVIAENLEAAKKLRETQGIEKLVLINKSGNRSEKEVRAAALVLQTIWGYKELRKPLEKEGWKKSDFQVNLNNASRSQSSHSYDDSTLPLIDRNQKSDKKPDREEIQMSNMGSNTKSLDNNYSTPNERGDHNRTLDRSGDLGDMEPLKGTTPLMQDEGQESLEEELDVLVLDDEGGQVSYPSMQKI
# B1: GST-VCIP-RGD fusion protein (wild-type glutathione S-transferase-VCIP-RGD) (other)
# chain: DIAKVSIGRLRPHFLSVCNPDFSQINCSEGYIQNYRCRGDDSKVQEARKS
# modifications: cysteine pairing not given here; also: recombinant GST fusion
# notes: also called GST-RGD-VCIP; recombinant VCIP-RGD; not shown: glutathione S-transferase (GST) encoded by the pGstag vector
# B2: wild-type VCIP/PAP2b, HA-tagged, expressed from pLNCX2-VCIP-RGD (other)
# chain: YPYDVPDYAYPYDVPDYAYPYDVPDYAMQNYKYDKAIVPESKNGGSPALNNNPRRSGSKRVLLICLDLFCLFMAGLPFLIIETSTIKPYHRGFYCNDESIKYPLKTGETINDAVLCAVGIVIAILAIITGEFYRIYYLKKSRSTIQNPYVAALYKQVGCFLFGCAISQSFTDIAKVSIGRLRPHFLSVCNPDFSQINCSEGYIQNYRCRGDDSKVQEARKSFFSGHASFSMYTMLYLVLYLQARFTWRGARLLRPLLQFTLIMMAFYTGLSRVSDHKHHPSDVLAGFAQGALVACCIVFFVSDLFKTKTTLSLPAPAIRKEILSPVDIIDRNNHHNMM
# notes: Expressed in HEK293, SW480 and HUVEC cells; also called VCIP-RGD (WT); pLNCX2-PAP2b-RGD
# B3: mutant VCIP/PAP2b-RGE, HA-tagged, expressed from pLNCX2-VCIP-RGE (other)
# chain: B2 chain with D211E
# B4: PAP2b/VCIP retroviral construct E, lacking the entire C-terminal cytoplasmic segment (other, not shown: small tags and cut ends)
# chain: MQNYKYDKAIVPESKNGGSPALNNNPRRSGSKRVLLICLDLFCLFMAGLPFLIIETSTIKPYHRGFYCNDESIKYPLKTGETINDAVLCAVGIVIAILAIITGEFYRIYYLKKSRSTIQNPYVAALYKQVGCFLFGCAISQSFTDIAKVSIGRLRPHFLSVCNPDFSQINCSEGYIQNYRCRGDDSKVQEARKSFFSGHASFSMYTMLYLVLYLQARFTWRGARLLRPLLQFTLIMMAFYTGLSRVSDHKHHPSDVLAGFAQGALVACCIVFFVSDLFKTKTT
# notes: residues 1-283 follow from that; Expressed in endothelial cells, lysate used; also called Δ-C-Cyto-284-311; VCIP-Δ-C-cyto
# Assays:
# [1] = molecular target: T5, αvβ3 integrin of endothelial cells (human, UniProt P06756 31-1048; P05106 27-788); test: GST pull-down from 35S-labeled endothelial cell lysate, re-immunoprecipitation with LM609
# T5 construct: whole, on cells; On cells in the adhesion assays
# From the text: (§1) Lysates were pre-adsorbed twice with GST-Sepharose beads to remove proteins that interact with GST-Sepharose beads non-specifically. […] The beads were then extensively washed. […] The samples were equally divided into three tubes and diluted with cold immunoprecipitation dilution buffer to adjust the concentration of SDS to <0.1%. The samples were then immediately subjected to immunoprecipitation with indicated antibodies (FIG. 10H).
# [2] = molecular target: T6, α5β1 integrin of endothelial cells (human, UniProt P08648 42-1049; P05556 21-798); test: GST pull-down from 35S-labeled endothelial cell lysate, re-immunoprecipitation with P1D6
# T6 construct: whole, on cells; On cells in the adhesion assays
# From the text: as §1
# [3] = molecular target: soluble αvβ5 integrin (UniProt P06756 31-992; P18084 24-719); test: solid-phase ligand binding ELISA, integrin immobilized
# Method: (§2) Briefly, soluble α2β1, α5β1, αvβv3 and αvβ5 integrins (1 μg/ml in a solution containing 20 mM Tris pH 7.4, 150 mM NaCl, 1 mM CaCl₂, 1 mM MgCl₂ and 1 mM MnCl₂) were immobilized onto 96-well microtiter plates at 4° C. Wells were washed and blocked with 0.5% BSA. […] Plates were then washed again and the ABTS substrate (Bio-Rad) was added. All washing steps were carried out using PBS. Absorbances were read at 405 nm, and non-specific binding values were adjusted against BSA.
# [4] = molecular target: soluble α2β1 integrin (UniProt P17301 30-1132; P05556 21-728); test: as above
# Method: as §2
# [5] = molecular target: VEGF receptor-2 (VEGFR-2) (human, UniProt P35968 20-1356); test: co-immunoprecipitation from HUVECs, western blot of identical blots
# [6] = molecular target: CD36 (human, UniProt P16671 2-472); test: as above
# [7] = molecular target: Tie-2 (human, UniProt Q02763 23-1124); test: as above
# [8] = molecular target: PECAM-1 (human, UniProt P16284 28-738); test: as above
# [9] = molecular target: T1, β-catenin; test: co-immunoprecipitation from HUVECs infected with wild-type PAP2b, western blot
# [10] = molecular target: T2, γ-catenin (plakoglobin); test: as above
# [11] = molecular target: T3, VE-cadherin; test: as above
# [12] = molecular target: T4, p120catenin; test: cell-based or functional assay
# [13] = molecular target: T4, p120catenin; test: anti-HA co-immunoprecipitation from infected endothelial cells, anti-p120 catenin blot
# Method: Endothelial cells were solubilized in RIPA buffer, and immunoprecipitated using indicated antibodies (5 μg/1.5 mg protein). […] All blots shown are representative of those obtained in at least three separate experiments.
# Cell extracts were immunoprecipitated with anti-HA (lanes 1, 2, 4, 5 and 6) or anti-p120 catenin (lane 3) monoclonal antibodies (mAb) and subjected to western immunoblot analysis with anti-p120 catenin (FIG. 17A). To determine the level of expression, the bottom portion of the blot was analyzed by immunoblotting with anti-HA mAbs (FIG. 17B).
# soluble α2β1 integrin, sequence (P17301 30-1132, chain 1 of 2): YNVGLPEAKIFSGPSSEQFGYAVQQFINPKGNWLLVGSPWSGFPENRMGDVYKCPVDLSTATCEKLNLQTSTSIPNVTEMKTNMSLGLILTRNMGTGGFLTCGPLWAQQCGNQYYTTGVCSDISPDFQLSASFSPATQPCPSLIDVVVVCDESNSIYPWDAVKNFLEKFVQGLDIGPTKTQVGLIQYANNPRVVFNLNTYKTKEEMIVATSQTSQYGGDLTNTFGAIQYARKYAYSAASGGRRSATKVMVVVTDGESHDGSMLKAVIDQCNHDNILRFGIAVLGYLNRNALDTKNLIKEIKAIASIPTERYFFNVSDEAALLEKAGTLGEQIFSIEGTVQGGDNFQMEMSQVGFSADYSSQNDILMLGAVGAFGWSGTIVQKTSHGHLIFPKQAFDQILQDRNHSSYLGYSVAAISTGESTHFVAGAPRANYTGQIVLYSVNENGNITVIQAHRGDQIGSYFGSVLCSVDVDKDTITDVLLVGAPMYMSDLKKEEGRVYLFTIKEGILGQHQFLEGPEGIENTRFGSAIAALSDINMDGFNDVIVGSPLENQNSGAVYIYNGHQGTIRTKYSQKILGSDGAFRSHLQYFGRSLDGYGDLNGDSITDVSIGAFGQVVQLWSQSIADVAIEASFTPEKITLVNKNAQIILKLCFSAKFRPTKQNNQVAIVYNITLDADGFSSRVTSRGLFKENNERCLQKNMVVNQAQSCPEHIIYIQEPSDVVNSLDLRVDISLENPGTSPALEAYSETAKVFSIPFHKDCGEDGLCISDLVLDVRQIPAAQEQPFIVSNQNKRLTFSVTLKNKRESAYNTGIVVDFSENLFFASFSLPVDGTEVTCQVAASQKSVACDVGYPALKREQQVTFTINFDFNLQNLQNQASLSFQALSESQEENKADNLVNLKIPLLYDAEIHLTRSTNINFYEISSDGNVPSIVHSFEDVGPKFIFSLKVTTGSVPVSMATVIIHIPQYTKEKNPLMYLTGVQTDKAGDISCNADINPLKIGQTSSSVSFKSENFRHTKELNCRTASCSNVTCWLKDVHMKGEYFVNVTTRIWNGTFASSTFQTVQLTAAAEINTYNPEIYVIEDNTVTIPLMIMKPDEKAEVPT
# soluble α2β1 integrin, sequence (P05556 21-728, chain 2 of 2): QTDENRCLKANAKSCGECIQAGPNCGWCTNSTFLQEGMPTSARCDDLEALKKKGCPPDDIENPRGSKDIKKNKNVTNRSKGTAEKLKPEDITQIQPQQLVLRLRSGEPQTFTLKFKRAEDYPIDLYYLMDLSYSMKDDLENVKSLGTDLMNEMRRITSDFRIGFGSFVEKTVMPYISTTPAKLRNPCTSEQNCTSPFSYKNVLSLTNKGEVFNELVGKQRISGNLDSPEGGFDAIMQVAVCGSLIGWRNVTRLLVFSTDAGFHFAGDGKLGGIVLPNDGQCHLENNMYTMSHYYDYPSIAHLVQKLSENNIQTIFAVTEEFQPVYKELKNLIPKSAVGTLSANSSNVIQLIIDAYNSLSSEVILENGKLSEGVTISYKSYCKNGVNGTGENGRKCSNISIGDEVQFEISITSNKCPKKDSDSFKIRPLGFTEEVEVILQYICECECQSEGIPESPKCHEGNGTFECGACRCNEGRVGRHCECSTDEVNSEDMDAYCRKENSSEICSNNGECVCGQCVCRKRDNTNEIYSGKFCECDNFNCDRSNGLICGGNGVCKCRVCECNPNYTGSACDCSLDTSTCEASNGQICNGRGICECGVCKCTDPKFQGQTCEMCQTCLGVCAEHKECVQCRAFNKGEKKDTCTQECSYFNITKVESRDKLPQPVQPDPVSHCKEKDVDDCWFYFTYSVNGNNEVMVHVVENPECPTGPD
# T6 sequence (P08648 42-1049, chain 1 of 2): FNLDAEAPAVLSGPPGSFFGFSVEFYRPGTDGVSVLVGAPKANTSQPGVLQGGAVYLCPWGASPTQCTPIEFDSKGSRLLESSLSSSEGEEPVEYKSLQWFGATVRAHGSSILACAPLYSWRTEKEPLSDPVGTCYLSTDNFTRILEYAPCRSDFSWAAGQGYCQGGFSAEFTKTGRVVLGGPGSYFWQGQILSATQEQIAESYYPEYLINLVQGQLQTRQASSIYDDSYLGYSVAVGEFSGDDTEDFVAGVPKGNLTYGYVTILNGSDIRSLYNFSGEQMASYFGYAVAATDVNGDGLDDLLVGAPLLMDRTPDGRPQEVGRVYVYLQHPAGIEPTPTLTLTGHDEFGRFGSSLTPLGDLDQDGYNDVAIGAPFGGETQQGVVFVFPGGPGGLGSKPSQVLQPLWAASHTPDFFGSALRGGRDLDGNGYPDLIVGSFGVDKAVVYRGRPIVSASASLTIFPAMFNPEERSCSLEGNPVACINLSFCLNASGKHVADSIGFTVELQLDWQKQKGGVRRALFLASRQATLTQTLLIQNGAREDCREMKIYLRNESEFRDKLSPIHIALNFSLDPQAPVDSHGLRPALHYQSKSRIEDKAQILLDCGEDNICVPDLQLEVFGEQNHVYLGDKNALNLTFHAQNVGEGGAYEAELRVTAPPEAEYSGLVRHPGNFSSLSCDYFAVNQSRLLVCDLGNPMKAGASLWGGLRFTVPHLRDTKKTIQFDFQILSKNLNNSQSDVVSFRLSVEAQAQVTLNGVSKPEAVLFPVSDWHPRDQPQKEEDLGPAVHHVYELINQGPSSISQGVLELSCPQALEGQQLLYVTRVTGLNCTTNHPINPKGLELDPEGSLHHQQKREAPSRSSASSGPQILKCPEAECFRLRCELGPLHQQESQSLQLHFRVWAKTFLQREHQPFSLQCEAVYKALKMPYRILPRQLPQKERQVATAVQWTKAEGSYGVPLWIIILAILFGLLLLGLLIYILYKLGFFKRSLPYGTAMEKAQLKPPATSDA
# T6 sequence (P05556 21-798, chain 2 of 2): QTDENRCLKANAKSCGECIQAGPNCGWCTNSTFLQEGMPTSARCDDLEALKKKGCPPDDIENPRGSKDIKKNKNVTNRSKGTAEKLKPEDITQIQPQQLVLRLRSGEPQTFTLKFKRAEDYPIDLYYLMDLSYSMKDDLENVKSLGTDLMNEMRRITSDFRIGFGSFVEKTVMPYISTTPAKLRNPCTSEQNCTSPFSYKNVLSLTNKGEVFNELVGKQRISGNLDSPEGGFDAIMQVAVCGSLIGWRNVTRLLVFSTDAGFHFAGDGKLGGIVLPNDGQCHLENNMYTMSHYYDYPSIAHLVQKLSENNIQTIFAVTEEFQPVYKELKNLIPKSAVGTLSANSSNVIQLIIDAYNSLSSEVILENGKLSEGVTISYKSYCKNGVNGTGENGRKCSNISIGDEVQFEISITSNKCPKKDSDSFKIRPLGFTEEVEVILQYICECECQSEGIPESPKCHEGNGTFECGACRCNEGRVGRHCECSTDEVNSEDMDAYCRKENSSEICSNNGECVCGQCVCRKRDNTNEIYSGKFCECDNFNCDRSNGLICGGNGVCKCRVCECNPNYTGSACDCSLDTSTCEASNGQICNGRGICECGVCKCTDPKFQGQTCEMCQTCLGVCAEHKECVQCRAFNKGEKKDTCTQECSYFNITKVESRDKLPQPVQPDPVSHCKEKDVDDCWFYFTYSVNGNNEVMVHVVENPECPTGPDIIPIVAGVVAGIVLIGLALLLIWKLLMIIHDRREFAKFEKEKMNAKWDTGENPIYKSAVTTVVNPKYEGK
# CD36, sequence (P16671 2-472 limits assumed): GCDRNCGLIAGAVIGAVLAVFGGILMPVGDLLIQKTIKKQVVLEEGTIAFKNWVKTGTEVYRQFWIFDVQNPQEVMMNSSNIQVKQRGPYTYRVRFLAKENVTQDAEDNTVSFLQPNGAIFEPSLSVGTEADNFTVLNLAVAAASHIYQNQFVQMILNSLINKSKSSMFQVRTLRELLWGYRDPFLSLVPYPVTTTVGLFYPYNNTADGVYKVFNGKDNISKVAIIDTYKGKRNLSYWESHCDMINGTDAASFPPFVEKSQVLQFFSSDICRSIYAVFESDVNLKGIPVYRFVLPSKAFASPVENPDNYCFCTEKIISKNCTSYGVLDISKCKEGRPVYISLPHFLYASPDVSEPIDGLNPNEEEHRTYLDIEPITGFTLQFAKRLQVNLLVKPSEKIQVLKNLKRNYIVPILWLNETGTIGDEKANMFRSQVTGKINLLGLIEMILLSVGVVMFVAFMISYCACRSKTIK
binder,measurement,setting,value
B1,binding result,[1],binds
same,binding result,[2],binds
same,binding result,[3],no binding (tested: 50-350 ng per well)
same,binding result,[4],no binding (tested: 50-350 ng per well)
B2,binding result,[5],no binding
same,binding result,[6],no binding
same,binding result,[7],no binding
same,binding result,[8],no binding
same,binding result,[9],no binding
same,binding result,[10],no binding
same,binding result,[11],no binding
same,"LEF-1 luciferase (TOPFLASH) activity in SW480 cells, fold reduction, construct B",[12],~3.2 fold
B3,"LEF-1 luciferase (TOPFLASH) activity in SW480 cells, fold reduction, construct C",[12],~4.2 fold
B4,binding result,[13],no binding
